Patent US8497072 (AbbVie / Abbott, dated 2013)
Where a chain is given by its changes, count along the chain named. Blank lines part the entries; values can stand above or below the binder they belong to.

Assays:
Aβ(1-42) globulomer [1] = biological target: T1, Aβ(1-42) globulomer (human, UniProt P05067 672-713); test: sandwich ELISA, reference Aβ(1-42) monomer
T1 construct: The definitions give n=12-14 subunits for late assembly forms; no subunit number is stated for the preparation used; also called A-beta (1-42) globulomer; Aβ(1-42) globular oligomer

[2] = biological target: T2, Aβ1-42 monomer (dot blot) (human); test: dot blot, 10 pmol antigen on nitrocellulose, 0.2 µg/ml antibody, densitometry
T2 construct: also called Aβ42 monomer
Procedure: (§1) In a second example, described in Example 2.2 below, the oligomer selectivity versus Aβ(1-42) monomer and Aβ(1-40) monomer was examined by dot blot immunoassay.
(§2) Serial dilutions of Aβ(1-42) globulomer, Aβ1-42 monomer and Aβ1-40 monomer were made in the range from 100 pmol/μl-0.01 pmol/μl in PBS. Of each sample, 1 μl was dotted onto a nitrocellulose membrane. […] The detection signal was analyzed in its intensity (reflective density=RD) via a densitometer (GS 800, Biorad, Hercules, Calif., USA) at an antigen concentration of 10 pmol.

Aβ(1-40) monomer [3] = biological target: T3, Aβ(1-40) monomer (human); test: as above
T3 construct: also called Aβ40; Aβ(1-40) monomer HFIP pretreated
Procedure: as §1, §2

Aβ(1-42) globulomer [4] = biological target: T1, Aβ(1-42) globulomer; test: as above
Procedure: as §1, §2

Aβ(1-40) monomer [5] = biological target: T3, Aβ(1-40) monomer; test: sandwich ELISA, 6G1 capture, antigen titrated, biotinylated 8F5 detection
Procedure: (§3) Two types of experiments were performed. […] This experiment is described in Example 2.1 below.
(§4) Add 10 μl Aβ(1-42) monomer HFIP-pretreated standard stock solution to 44041 PBST+0.5% BSA 10 μg/ml Add 50 μl 10 μg/ml Aβ(1-42) monomer HFIP pretreated standard solution to 495041 PBST+0.5% BSA=100 ng/ml c) Aβ(1-42) monomer in NH4OH Add 5 μl Aβ(1-42) monomer in NH4OH standard stock solution to 995 μl PBST+0.5% BSA=[…] Add 50 μl 10 μg/ml Aβ(1-42) monomer in NH4OH standard solution to 495041 PEST+[…]=100 ng/ml d) Aβ(1-40) monomer HFIP-pretreated Add 1 μl Aβ(1-40) monomer HFIP pretreated standard stock solution to 49 μl PBST+0.5% BSA=430 μg/ml Add 10 μl 430 μg/ml Aβ(1-40) monomer HFIP pretreated standard solution to […] PEST+0.5% BSA=10 μg/ml Add 50 μl 10 μg/ml Aβ(1-40) monomer HFIP pretreated standard solution to 4950 μl PBST+0.5% BSA 100 ng/ml Standard Curves:
(§5) 1. Apply 100 μl anti-Aβ mMAb 6G1 solution per well and incubate overnight at 4° C. 2. Discard the antibody solution and wash the wells with 250 μl PBST-Buffer three times. 3. Add 260 μl block solution per well and incubate 2 h at room temperature. 4. Discard the block solution and wash the wells with 250 μl PBST-Buffer three times. 5. After preparation of standards, apply 100 μl per well of standards to the plate. Incubate 2 h at room temperature and overnight at 4° C. 6. Discard the standard solution and wash the wells with 250 μl PBST-Buffer three times. 7. […] 8. Discard the antibody solution and wash the wells with 250 μl PBST-Buffer three times. 9. Add 200 μl label solution per well and incubate 1 h at room temperature. 10. Discard the label solution and wash the wells with 250 μl PBST-Buffer three times. 11. Add 100 μl of TMB solution to each well and incubate at room temperature (5-15 min). 12.

Aβ(1-42) globulomer [6] = biological target: T1, Aβ(1-42) globulomer; test: as above
Procedure: as §3, §4, §5

[7] = biological target: Aβ(1-42) monomer in NH4OH (human); test: as above
Procedure: as §3, §4, §5

[8] = biological target: T4, Aβ(1-42) monomer, HFIP pretreated (human); test: as above
T4 construct: also called Aβ(1-42) monomer in HFIP; Aβ(1-42) monomer HFIP treated
Procedure: as §3, §4, §5

[9] = biological target: T5, endogenous Aβ(1-42) in human CSF (human); test: IP from AD patient CSF, urea-PAGE Western blot, share of Aβ42 in recovered Aβ40+42
T5 construct: Endogenous peptide in cerebrospinal fluid of MCI and AD patients; it was quantified after elution by ELISA or urea-PAGE Western blot; also called Aβ42; Amyloid β(1-42)
Procedure: Immunoprecipitation of Abeta Species from Human AD-CSF: 250 μL aliquot of the prepared CSF sample were added to 25 μL anti-Aβ-Dynabeads suspension. Immunoprecipitation occurred under stirring at 6° C. for 16 hours. Subsequent washing of the beads was performed 3 times 5 min. with 1 mL PBS/0.1% (w/v) BSA and finally once 3 min. with 1 mL 10 mM Tris/HCL pH 7.5 buffer. During the washing procedure, the supernatant was carefully removed while the dynabeads were immobilized at the side of the reaction vial with a magnetic separator stand (MSS). The residual supernatant was thoroughly removed after the final washing step. […] After cooling to room temperature, the dynabeads were immobilized at the side of the reaction vial with a magnetic separator stand (MSS), and the supernatant was transferred to another Eppendorff tube (IP eluate).
15 μL IP eluate aliquots of the immunoprecipitated samples were loaded onto the 8 M Urea PAGE. Electrophoresis was performed at 100 V (15 min) and continued at 60 V. The electrophoresis was stopped when the running front of the blue sample loading dye was still 0.5 cm away from the end of the gel.

Aβ(1-42) globulomer [10] = biological target: T1, Aβ(1-42) globulomer; test: dot blot, reference Aβ(1-42) monomer
Procedure: as §1, §2

Aβ(1-42) globulomer [11] = biological target: T1, Aβ(1-42) globulomer; test: dot blot, reference Aβ(1-40) monomer
Procedure: as §1, §2

Aβ(1-40) monomer [12] = biological target: T3, Aβ(1-40) monomer; test: sandwich ELISA, EC50 of this antigen divided by EC50 of Aβ(1-42) globulomer
[13] = biological target: Aβ(1-42) monomer in NH4OH (human); test: as above
[14] = biological target: T4, Aβ(1-42) monomer, HFIP pretreated; test: as above
[15] = biological target: T2, Aβ1-42 monomer (dot blot); test: dot blot, 10 pmol antigen on nitrocellulose, densitometry
Procedure: as §1, §2

Aβ(1-40) monomer [16] = biological target: T3, Aβ(1-40) monomer; test: as above
Procedure: as §1, §2

Aβ(1-42) globulomer [17] = biological target: T1, Aβ(1-42) globulomer; test: as above
Procedure: as §1, §2

T3 sequence (peptide, as listed by the source): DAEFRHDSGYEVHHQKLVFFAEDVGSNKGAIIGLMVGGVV
T1 sequence (P05067 672-713 limits assumed): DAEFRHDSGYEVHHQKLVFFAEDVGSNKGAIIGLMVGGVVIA
T4 sequence (peptide, as listed by the source): as the sequence (P05067 672-713 limits assumed) above
Chain of Aβ(1-42) monomer in NH4OH (human) (peptide, as listed by the source): as the sequence (P05067 672-713 limits assumed) above
T2 sequence (peptide, as listed by the source): as the sequence (P05067 672-713 limits assumed) above
T5 sequence (peptide, as listed by the source): as the sequence (P05067 672-713 limits assumed) above

selectivity for Aβ(1-42) globulomer versus Aβ(1-42) monomer (Aβ(1-42) globulomer [1]): ~10 fold
Reflective Density (RD) [10 pmol] [2]: 1.1 RD
Reflective Density (RD) [10 pmol] (Aβ(1-40) monomer [3]): 0.1 RD
Reflective Density (RD) [10 pmol] (Aβ(1-42) globulomer [4]): 1.6 RD
Log EC50 (Aβ(1-40) monomer [5]): 2.83
Log EC50 (Aβ(1-42) globulomer [6]): 1.96
Log EC50 [7]: 3
Log EC50 [8]: 2.75
Ratio Aβ42/Aβ40+42 × 100% [9]: 8.1%
Ratio RD Aβ(1-42) globulomer/RD Aβ(1-42) monomer (Aβ(1-42) globulomer [10]): 1.4
Ratio RD Aβ(1-42) globulomer/RD Aβ(1-40) monomer (Aβ(1-42) globulomer [11]): 16.9
selectivity factor (EC50 ratio against Aβ(1-42) globulomer) (Aβ(1-40) monomer [12]): 7.4 fold
selectivity factor (EC50 ratio against Aβ(1-42) globulomer) [13]: 11.1 fold
selectivity factor (EC50 ratio against Aβ(1-42) globulomer) [14]: 6.1 fold
B1: monoclonal antibody 8F5 (antibody, V domains shown)
VH: EVQLVESGGGLVQPGGSLKLSCAASGFTFSSYGMSWVRQTPDKRLELVASINSNGGSTYYPDSVKGRFTISRDNAKNTLYLQMSSLKSEDTAMYYCASGDYWGQGSTLTVSS
VL: DVVMTQTPLSLPVSLGDQASISCRSSQSLVYSNGDTYLHWYLQKPGQSPKLLIYKVSNRFSGVPDRFSGSGSGTDFTLKISRVEAEDLGVYFCSQSTHVPWTFGGGTKLEIKR
notes: Murine monoclonal antibody from a hybridoma (Balb/c mice immunized with Aβ(1-42) globulomer); Biotinylated with Sulfo-NHS-Biotin for the sandwich ELISA; coupled to Sepharose or Dynabeads for the immunoprecipitations; also called mMAb 8F5; anti-Aβ mouse Mab 8F5

Reflective Density (RD) [10 pmol] [15]: 0.2 RD
Reflective Density (RD) [10 pmol] (Aβ(1-40) monomer [16]): 0.3 RD
Reflective Density (RD) [10 pmol] (Aβ(1-42) globulomer [17]): 1.3 RD
Ratio Aβ42/Aβ40+42 × 100% [9]: 14.9%
Ratio RD Aβ(1-42) globulomer/RD Aβ(1-42) monomer (Aβ(1-42) globulomer [10]): 5.1
Ratio RD Aβ(1-42) globulomer/RD Aβ(1-40) monomer (Aβ(1-42) globulomer [11]): 4.1
selectivity factor (EC50 ratio against Aβ(1-42) globulomer) (Aβ(1-40) monomer [12]): > 100 fold
selectivity factor (EC50 ratio against Aβ(1-42) globulomer) [13]: > 100 fold
selectivity factor (EC50 ratio against Aβ(1-42) globulomer) [14]: 4.1 fold
B2: monoclonal antibody 8C5 (antibody, V domains shown)
VH: B1 VH with A23T, N52K, S53N, V64L, S106T
VL: B1 VL with Y31H, Y37F, V90I, T97I
notes: Murine monoclonal antibody from a hybridoma; Biotinylated for the sandwich ELISA; also called mMab 8C5; 5C5
